Laboratory results taken from publication doi:10.1101/2021.09.03.458554 (bioRxiv, 2021).

T1: hGid4 (Δ1-115) (human, UniProt Q8IVV7 116-300)
T1 sequence: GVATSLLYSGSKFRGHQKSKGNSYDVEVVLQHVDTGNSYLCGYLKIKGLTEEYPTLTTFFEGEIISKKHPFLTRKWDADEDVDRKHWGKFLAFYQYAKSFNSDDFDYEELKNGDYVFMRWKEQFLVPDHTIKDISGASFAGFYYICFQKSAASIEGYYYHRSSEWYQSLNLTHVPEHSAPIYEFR

T2: yGid10 (Δ1-64, Δ285-292) (S. cerevisiae, UniProt P53242 65-284)
T2 sequence: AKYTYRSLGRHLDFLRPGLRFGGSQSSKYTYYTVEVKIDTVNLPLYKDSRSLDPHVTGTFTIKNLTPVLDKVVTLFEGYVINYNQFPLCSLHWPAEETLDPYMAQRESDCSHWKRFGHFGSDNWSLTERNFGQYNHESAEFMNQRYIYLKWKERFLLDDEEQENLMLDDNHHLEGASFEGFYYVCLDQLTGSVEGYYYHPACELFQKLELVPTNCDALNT

B1: GVATSLLW peptide (hGid4 residues 116-122) (peptide)
peptide: GVATSLLW
B2: FWLPANLW peptide (peptide)
peptide: FWLPANLW

Columns and labels:
hGid4 (Δ1-115) = target: T1, hGid4 (Δ1-115); experiment: fluorescence polarisation
yGid10 (Δ1-64, Δ285-292) = target: T2, yGid10 (Δ1-64, Δ285-292); experiment: crystal structure

Binder	binding result (hGid4 (Δ1-115))	binding result (yGid10 (Δ1-64, Δ285-292))
B1	binds	–
B2	–	binds
